T1: human MHC class II DR protein (DRA*0101/DRB1*0401), purified from PRIESS cells (human, UniProt P01903 26-254; P01911 30-266, limits assumed)
T1 construct: mature; also called HLA-DR protein; MHCII
T1 MHC II alpha: not shown
T1 MHC II beta: not shown

T2: HLA-DR (DRA*0101/DRB1*0401) on PRIESS cells (human, UniProt P01903 26-254; P01911 30-266)
T2 MHC II alpha: not shown
T2 MHC II beta: not shown

B1: MS-GPC-8-6-47 Fab (Fab, V domains shown)
VH: QVQLKESGPALVKPTQTLTLTCTFSGFSLSTSGVGVGWIRQPPGKALEWLALIDWDDDKYYSTSLKTRLTISKDTSKNQVVLTMTNMDPVDTATYYCARSPRYRGAFDYWGQGTLVTVSS
VL: DIVLTQPPSVSGAPGQRVTISCSGSESNIGSNYVSWYQQLPGTAPKLLIYDNNQRPSGVPDRFSGSKSGTSASLAITGLQSEDEADYYCQSYDYDHYVFGGGTKLTVLG
notes: Fab: VH-CH1 with FLAG tag and STREP tag II, VL-CL; VH residue 1 is Q in Fab
B2: MS-GPC-8-6 IgG (antibody, V domains shown)
VH: B1 VH
VL: B1 VL with E26S
B3: MS-GPC-8-6-2 IgG (antibody, V domains shown)
VH: B1 VH
VL: B1 VL with S35H
B4: MS-GPC-8-6-13 Fab (Fab, V domains shown)
VH: B1 VH
VL: B1 VL with S31A, S35T
notes: Fab: VH-CH1 with FLAG tag and STREP tag II, VL-CL; VH residue 1 is Q in Fab; also called 305D3
B5: MS-GPC-8-6-2 Fab (Fab, V domains shown)
VH: B1 VH
VL: B1 VL with S35H
notes: as for B1
B6: MS-GPC-8-27-10 Fab (Fab, V domains shown)
VH: B1 VH
VL: B1 VL with S31A, S35N, Y94M, D95N, H96V, Y97H
notes: as for B1
B7: MS-GPC-8-10-57 Fab (Fab, V domains shown)
VH: B1 VH
VL: B1 VL with S31N, S35Q, Y94L, D95I, H96R, Y97H
notes: Fab: VH-CH1 with FLAG tag and STREP tag II, VL-CL; VH residue 1 is Q in Fab; also called 1C7277
B8: MS-GPC-8-6-19 Fab (Fab, V domains shown)
VH: B1 VH
VL: B1 VL with S35A
notes: as for B1
B9: MS-GPC-8-6-27 Fab (Fab, V domains shown)
VH: B1 VH
VL: B1 VL with E26D, S31A, S35T
notes: as for B1
B10: MS-GPC-8-27-7 Fab (Fab, V domains shown)
VH: B1 VH
VL: B1 VL with S31N, S35G, Y94M, D95N, H96V, Y97H
notes: as for B1
B11: MS-GPC-8-6-45 Fab (Fab, V domains shown)
VH: B1 VH
VL: B1 VL with S27P, S35F
notes: as for B1
B12: MS-GPC-8-10 Fab (Fab, V domains shown)
VH: B1 VH
VL: B1 VL with E26S, Y94L, D95I, H96R, Y97H
notes: as for B1
B13: MS-GPC-8-18 Fab (Fab, V domains shown)
VH: B1 VH
VL: B1 VL with E26S, Y94F, D95S, H96I
notes: as for B1
B14: MS-GPC-8-1 Fab (Fab, V domains shown)
VH: B1 VH
VL: B1 VL with E26S, Y94F, D95S
notes: as for B1
B15: MS-GPC-8-9 Fab (Fab, V domains shown)
VH: B1 VH
VL: B1 VL with E26S, Y94I, D95Q, H96L, Y97H
notes: as for B1
B16: MS-GPC-8-27 Fab (Fab, V domains shown)
VH: B1 VH
VL: B1 VL with E26S, Y94M, D95N, H96V, Y97H
notes: as for B1
B17: L243 (antibody, V domains shown)
VH: QIQLVQSGPELKKPGETVKISCKASGFTFTNYGMNWVKQAPGKGLKWMGWINTYTREPTYADDFKGRFAFSLETSASTAYLQINNLKNEDTAKYFCARDITAVVPTGFDYWGQGTTLTVSS
VL: DIQMTQSPASLSVSVGETVTITCRASENIYSNLAWYRQKQGKSPQLLVFAASNLADGVPSRFSGSGSGTQYSLKINSLQSEDFGDYYCQHFWTTPWAFGGGTNLEIK

Positions count from the first letter of the chain named.

T3 sequence (P00698 19-147): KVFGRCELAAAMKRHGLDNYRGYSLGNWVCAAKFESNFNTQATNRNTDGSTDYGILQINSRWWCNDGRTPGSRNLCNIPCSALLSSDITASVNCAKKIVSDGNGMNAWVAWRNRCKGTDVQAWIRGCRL

The target of the first test is chimeric 0401-IE class II molecule on cells of transgenic mice (human/murine chimera). The test is described as follows: cell-based or functional assay.
Take B1: the “IC50 of inhibition of IL-2 secretion from T-Hyb 1 cells” value (“IC50 of inhibition of IL-2 secretion” below) was 2.6 nM (half the concentration of the Fab) and the “Maximum inhibition(%) of IL-2 secretion” value worked out at 100%.

For B2, the “IC50 of inhibition of IL-2 secretion” value was determined as 6.7 nM and the “Maximum inhibition(%) of IL-2 secretion” value was determined as 100%.

Consider B3, for which the “IC50 of inhibition of IL-2 secretion” value is 3.6 nM and the “Maximum inhibition(%) of IL-2 secretion” value turned out to be 100%.

Turning to B4, the “IC50 of inhibition of IL-2 secretion” value was 2.1 nM (half the concentration of the Fab) and the “Maximum inhibition(%) of IL-2 secretion” value was found to be 100%.

For B5, the “IC50 of inhibition of IL-2 secretion” value was 4.7 nM (half the concentration of the Fab) and the “Maximum inhibition(%) of IL-2 secretion” value amounted to 100%.

As to B6, the “IC50 of inhibition of IL-2 secretion” value is 7.3 nM (half the concentration of the Fab) and the “Maximum inhibition(%) of IL-2 secretion” value is 100%.

B7: the “IC50 of inhibition of IL-2 secretion” value was 2.9 nM (half the concentration of the Fab) and the “Maximum inhibition(%) of IL-2 secretion” value was 100%.

Take B8: the “IC50 of inhibition of IL-2 secretion” value was 5.3 nM (half the concentration of the Fab) and the “Maximum inhibition(%) of IL-2 secretion” value is 100%.

For the molecule B9, the “IC50 of inhibition of IL-2 secretion” value was 3 nM (half the concentration of the Fab) and the “Maximum inhibition(%) of IL-2 secretion” value stood at 100%.

Consider B10, for which the “IC50 of inhibition of IL-2 secretion” value was 5.9 nM (half the concentration of the Fab) and the “Maximum inhibition(%) of IL-2 secretion” value amounted to 100%.

Another test concerns the target T3, lysozyme.
T3 construct: negative control antigen
Nature of the test: ELISA, coated antigen, Fab 100 ng/well, read at 370 nm. The method, then:
(§1) After washing in PBS the anti-human IgG F(ab')_2-peroxidase-conjugate at a 1:10,000 dilution in TBS (supplemented with 5% w/v non-fat drymilk/0.05% v/v Tween 20) was added to each well for 1 h. Final washes were carried out in PBS followed the addition the substrate POD (Roche).
In turn, B1 came in with an ELISA signal of 0.013.

As to B7, the ELISA signal came to 0.014.

As for B9, the ELISA signal was found to be 0.006.

For the next test, the target named is T4, BSA (bovine, UniProt P02769 25-607).
T4 construct: negative control antigen; also called bovine serum albumine
T4 sequence (P02769 25-607 limits assumed): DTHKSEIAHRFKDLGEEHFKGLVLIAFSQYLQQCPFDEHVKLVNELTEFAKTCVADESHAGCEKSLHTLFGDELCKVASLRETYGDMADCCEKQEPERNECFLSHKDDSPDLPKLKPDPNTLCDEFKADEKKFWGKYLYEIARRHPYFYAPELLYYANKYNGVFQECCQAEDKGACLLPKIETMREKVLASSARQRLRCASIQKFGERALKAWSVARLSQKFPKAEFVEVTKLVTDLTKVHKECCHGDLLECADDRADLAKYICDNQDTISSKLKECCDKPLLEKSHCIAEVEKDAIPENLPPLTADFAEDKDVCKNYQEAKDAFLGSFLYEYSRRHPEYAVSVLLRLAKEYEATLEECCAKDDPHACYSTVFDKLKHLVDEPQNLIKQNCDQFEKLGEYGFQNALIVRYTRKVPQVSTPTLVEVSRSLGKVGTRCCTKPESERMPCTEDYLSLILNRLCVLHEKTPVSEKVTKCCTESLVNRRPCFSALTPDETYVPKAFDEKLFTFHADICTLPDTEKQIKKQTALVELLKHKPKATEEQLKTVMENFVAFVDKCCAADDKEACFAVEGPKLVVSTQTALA
Described as above. The method, then: as §1
Consider B1, for which the ELISA signal was found to be 0.008 and the binding result is “no binding (tested: 100 ng/well)”.

On to B7, for which the ELISA signal is 0.003 and the binding result is reported as “no binding (tested: 100 ng/well)”.

As to B9, the ELISA signal turned out to be 0.003 and the binding result is “no binding (tested: 100 ng/well)”.

For a further test, the target named is T1, human MHC class II DR protein …. The test is described as above. The procedure:
as §1
Regarding B1, the ELISA signal was 1.4.

For B4, the ELISA signal worked out at 1.47.

Regarding B6, the ELISA signal was found to be 1.49.

For the molecule B7, the ELISA signal came to 1.26.

As for B9, the ELISA signal worked out at 1.3.

On to B10, for which the ELISA signal is 1.55.

A further test shares this target. The test is described as follows: SPR (BIAcore), MHCII on CM5 chip. (In general: In SPR one partner is held on a chip, and binding of the other changes the refractive index at the surface.)
For the molecule B1, the Kd came to 3.2 nM, the koff was 0.00062 s⁻¹ and the kon worked out at 200000 M⁻¹ s⁻¹.

For the molecule B4, the affinity, expressed as Kd, was 3 nM; the koff turned out to be 0.00055 s⁻¹; the kon was determined as 190000 M⁻¹ s⁻¹.

For B5, the Kd is 7.6 nM, the koff came out at 0.00094 s⁻¹ and the on-rate constant (kon) was 120000 M⁻¹ s⁻¹.

In turn, B6 gave a Kd of 3 nM, a koff of 0.00053 s⁻¹ and an on-rate constant (kon) of 180000 M⁻¹ s⁻¹.

B8 returned a Kd of 9 nM, a koff of 0.001 s⁻¹ and a kon of 110000 M⁻¹ s⁻¹.

Take B9: the Kd came to 6.3 nM, the koff is 0.0011 s⁻¹ and the kon worked out at 180000 M⁻¹ s⁻¹.

Molecule B10 showed an equilibrium dissociation constant (Kd) of 3.3 nM, a koff of 0.00057 s⁻¹ and an on-rate (kon) of 170000 M⁻¹ s⁻¹.

On to B11, for which the affinity, expressed as Kd, was 8.6 nM; the koff stood at 0.00103 s⁻¹; the kon was found to be 120000 M⁻¹ s⁻¹.

The next test shares this target. Nature of the test: SPR (BIAcore), MHCII on CM5 chip. This is another data set of the same source.
In turn, B1 yielded a Kd of 3.18 nM, a koff of 0.00062 s⁻¹ and a kon of 197000 M⁻¹ s⁻¹.

Molecule B12 returned a koff of 0.007 s⁻¹.

Molecule B13 displayed a Kd of 78.3 nM, an off-rate (koff) of 0.0083 s⁻¹ and a kon of 106000 M⁻¹ s⁻¹.

For the molecule B5, the affinity, expressed as Kd, was 7.61 nM; the koff came out at 0.00094 s⁻¹; the kon amounted to 123000 M⁻¹ s⁻¹.

Consider B6, for which the Kd turned out to be 3.01 nM, the koff was 0.00053 s⁻¹ and the kon was found to be 176000 M⁻¹ s⁻¹.

Regarding B14, the dissociation constant Kd worked out at 108 nM, the koff was 0.0209 s⁻¹ and the on-rate (kon) was determined as 193000 M⁻¹ s⁻¹.

On to B15, for which the Kd came out at 90.1 nM, the koff is 0.0166 s⁻¹ and the on-rate (kon) was 185000 M⁻¹ s⁻¹.

On to B8, for which the Kd was 8.74 nM, the off-rate constant (koff) was 0.00096 s⁻¹ and the on-rate constant (kon) was 110000 M⁻¹ s⁻¹.

In turn, B9 registered a Kd of 6.3 nM, a koff of 0.0011 s⁻¹ and a kon of 180000 M⁻¹ s⁻¹.

Molecule B10 had a Kd of 3.3 nM, a koff of 0.00057 s⁻¹ and a kon of 174000 M⁻¹ s⁻¹.

As for B11, the Kd is 8.63 nM, the koff came to 0.00103 s⁻¹ and the kon was 120000 M⁻¹ s⁻¹.

B16 registered an off-rate constant (koff) of 0.0066 s⁻¹.

Another test addresses T2, HLA-DR (DRA*0101/DRB1*0401) on PRIESS …. The test is described as follows: cell-based or functional assay.
With B5, the “EC50 of cell killing, cross-linked Fab, bivalent agent” value came to 8 nM.

As to B17, the “EC50 of cell killing, mIgG” value turned out to be 47 nM.

A further test addresses T1, human MHC class II DR protein …. Nature of the test: SPR (BIAcore), chip density 4000 RU MHCII.
As to B13, the dissociation constant (Kd) came to 78.3 nM, the koff came out at 0.0083 s⁻¹ and the kon came to 106000 M⁻¹ s⁻¹.

Take B14: the affinity, expressed as Kd, was 108 nM; the koff was 0.0209 s⁻¹; the kon is 193000 M⁻¹ s⁻¹.

B15: the equilibrium dissociation constant (Kd) came to 90.1 nM, the koff was 0.0166 s⁻¹ and the kon turned out to be 185000 M⁻¹ s⁻¹.

The Kd is the constant that tells how readily two partners part at equilibrium. In general, koff refers to the first-order rate constant of dissociation. Read a low koff as slow dissociation. A word on the kon: it is the rate constant with which the complex forms. A lower kon goes with slower complex formation.

For the origin of these results see US7521047 (GPC BIOTECH, dated 2009).
